# Biological target: the molecule itself
# Experiment: semi-denaturing SDS-PAGE
row,Protein,stoichiometry N
1,"IcsA passenger C375S (secreted) (domain or fragment, Shigella flexneri, UniProt Q7BCK4 53-758, looked up) TPLSGTQELHFSEDNYEKLLTPVDGLSPLGAGEDGMDAWYITSSNPSHASRTKLRINSDIMISAGHGGAGDNNDGNSCGGNGGDSITGSDLSIINQGMILGGSGGSGADHNGDGGEAVTGDNLFIINGEIISGGHGGDSYSDSDGGNGGDAVTGVNLPIINKGTISGGNGGNNYGEGDGGNGGDAITGSSLSVINKGTFAGGNGGAAYGYGYDGYGGNAITGDNLSVINNGAILGGNGGHWGDAINGSNMTIANSGYIISGKEDDGTQNVAGNAIHITGGNNSLILHEGSVITGDVQVNNSSILKIINNDYTGTTPTIEGDLSAGDCTTVSLSGNKFTVSGDVSFGENSSLNLAGISSLEASGNMSFGNNVKVEAIINNWAQKDYKLLSADKGITGFSVSNISIINPLLTTGAIDYTKSYISDQNKLIYGLSWNDTDGDSHGEFNLKENAELTVSTILADNLSHHNINSWDGKSLTKSGEGTLILAEKNTYSGFTNINAGILKMGTVEAMTRTAGVIVNKGATLNFSGMNQTVNTLLNSGTVLINNINAPFLPDPVIVTGNMTLEKNGHVILNNSSSNVGQTYVQKGNWHGKGGILSLGAVLGNDNSKTDRLEIAGHASGITYVAVTNEGGSGDKTLEGVQIISTDSSDKNAFIQKGRIVAGSYDYRLKQGTVSGLNTNKWYLTSQMDNQESKQMSNQESTQMSSR",2
2,"IcsA passenger C375S/C379S double mutant (secreted) (domain or fragment, Shigella flexneri, UniProt Q7BCK4 53-758, looked up) TPLSGTQELHFSEDNYEKLLTPVDGLSPLGAGEDGMDAWYITSSNPSHASRTKLRINSDIMISAGHGGAGDNNDGNSCGGNGGDSITGSDLSIINQGMILGGSGGSGADHNGDGGEAVTGDNLFIINGEIISGGHGGDSYSDSDGGNGGDAVTGVNLPIINKGTISGGNGGNNYGEGDGGNGGDAITGSSLSVINKGTFAGGNGGAAYGYGYDGYGGNAITGDNLSVINNGAILGGNGGHWGDAINGSNMTIANSGYIISGKEDDGTQNVAGNAIHITGGNNSLILHEGSVITGDVQVNNSSILKIINNDYTGTTPTIEGDLSAGDSTTVSLSGNKFTVSGDVSFGENSSLNLAGISSLEASGNMSFGNNVKVEAIINNWAQKDYKLLSADKGITGFSVSNISIINPLLTTGAIDYTKSYISDQNKLIYGLSWNDTDGDSHGEFNLKENAELTVSTILADNLSHHNINSWDGKSLTKSGEGTLILAEKNTYSGFTNINAGILKMGTVEAMTRTAGVIVNKGATLNFSGMNQTVNTLLNSGTVLINNINAPFLPDPVIVTGNMTLEKNGHVILNNSSSNVGQTYVQKGNWHGKGGILSLGAVLGNDNSKTDRLEIAGHASGITYVAVTNEGGSGDKTLEGVQIISTDSSDKNAFIQKGRIVAGSYDYRLKQGTVSGLNTNKWYLTSQMDNQESKQMSNQESTQMSSR",2
3,"IcsA passenger C379S (secreted) (domain or fragment, Shigella flexneri, UniProt Q7BCK4 53-758, looked up) TPLSGTQELHFSEDNYEKLLTPVDGLSPLGAGEDGMDAWYITSSNPSHASRTKLRINSDIMISAGHGGAGDNNDGNSCGGNGGDSITGSDLSIINQGMILGGSGGSGADHNGDGGEAVTGDNLFIINGEIISGGHGGDSYSDSDGGNGGDAVTGVNLPIINKGTISGGNGGNNYGEGDGGNGGDAITGSSLSVINKGTFAGGNGGAAYGYGYDGYGGNAITGDNLSVINNGAILGGNGGHWGDAINGSNMTIANSGYIISGKEDDGTQNVAGNAIHITGGNNSLILHEGSVITGDVQVNNSSILKIINNDYTGTTPTIEGDLCAGDSTTVSLSGNKFTVSGDVSFGENSSLNLAGISSLEASGNMSFGNNVKVEAIINNWAQKDYKLLSADKGITGFSVSNISIINPLLTTGAIDYTKSYISDQNKLIYGLSWNDTDGDSHGEFNLKENAELTVSTILADNLSHHNINSWDGKSLTKSGEGTLILAEKNTYSGFTNINAGILKMGTVEAMTRTAGVIVNKGATLNFSGMNQTVNTLLNSGTVLINNINAPFLPDPVIVTGNMTLEKNGHVILNNSSSNVGQTYVQKGNWHGKGGILSLGAVLGNDNSKTDRLEIAGHASGITYVAVTNEGGSGDKTLEGVQIISTDSSDKNAFIQKGRIVAGSYDYRLKQGTVSGLNTNKWYLTSQMDNQESKQMSNQESTQMSSR",2
